Data: patent publication US20130064881A1 (GRADALIS, published 2013)

T1: full length androgen receptor (human, UniProt P10275 1-920)
T1 construct: Full length AR expressed inside transfected cells (intracellular, not on the surface); also called AR; full length AR
T1 sequence: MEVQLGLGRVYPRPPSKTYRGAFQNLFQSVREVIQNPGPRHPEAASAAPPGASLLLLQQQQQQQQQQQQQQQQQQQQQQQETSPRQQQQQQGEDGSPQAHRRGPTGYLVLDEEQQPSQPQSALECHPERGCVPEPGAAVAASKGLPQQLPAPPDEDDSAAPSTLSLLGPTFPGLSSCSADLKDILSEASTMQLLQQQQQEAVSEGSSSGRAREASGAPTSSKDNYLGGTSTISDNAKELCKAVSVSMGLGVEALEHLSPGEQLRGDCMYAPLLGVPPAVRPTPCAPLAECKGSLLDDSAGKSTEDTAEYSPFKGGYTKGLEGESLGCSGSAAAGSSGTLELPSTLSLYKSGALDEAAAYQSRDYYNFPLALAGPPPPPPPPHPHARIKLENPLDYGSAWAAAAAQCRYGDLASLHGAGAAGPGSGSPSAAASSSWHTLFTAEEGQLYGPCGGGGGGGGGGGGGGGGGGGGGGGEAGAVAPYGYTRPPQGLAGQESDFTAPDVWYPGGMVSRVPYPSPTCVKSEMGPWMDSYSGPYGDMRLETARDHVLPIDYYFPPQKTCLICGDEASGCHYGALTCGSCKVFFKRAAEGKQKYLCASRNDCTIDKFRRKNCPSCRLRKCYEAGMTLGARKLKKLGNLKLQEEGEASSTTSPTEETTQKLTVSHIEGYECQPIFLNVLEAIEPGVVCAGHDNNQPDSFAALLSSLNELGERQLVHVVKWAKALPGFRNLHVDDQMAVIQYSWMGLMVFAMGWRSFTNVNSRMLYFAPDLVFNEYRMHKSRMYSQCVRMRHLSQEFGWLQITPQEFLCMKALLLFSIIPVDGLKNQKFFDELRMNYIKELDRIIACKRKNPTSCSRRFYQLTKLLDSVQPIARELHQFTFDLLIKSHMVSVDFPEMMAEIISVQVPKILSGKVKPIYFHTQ

T2: progesterone receptor (UniProt P06401 1-933, limits assumed)
T2 construct: The assay and the construct are not described; also called a related receptor, the progesterone receptor
T2 sequence (looked up): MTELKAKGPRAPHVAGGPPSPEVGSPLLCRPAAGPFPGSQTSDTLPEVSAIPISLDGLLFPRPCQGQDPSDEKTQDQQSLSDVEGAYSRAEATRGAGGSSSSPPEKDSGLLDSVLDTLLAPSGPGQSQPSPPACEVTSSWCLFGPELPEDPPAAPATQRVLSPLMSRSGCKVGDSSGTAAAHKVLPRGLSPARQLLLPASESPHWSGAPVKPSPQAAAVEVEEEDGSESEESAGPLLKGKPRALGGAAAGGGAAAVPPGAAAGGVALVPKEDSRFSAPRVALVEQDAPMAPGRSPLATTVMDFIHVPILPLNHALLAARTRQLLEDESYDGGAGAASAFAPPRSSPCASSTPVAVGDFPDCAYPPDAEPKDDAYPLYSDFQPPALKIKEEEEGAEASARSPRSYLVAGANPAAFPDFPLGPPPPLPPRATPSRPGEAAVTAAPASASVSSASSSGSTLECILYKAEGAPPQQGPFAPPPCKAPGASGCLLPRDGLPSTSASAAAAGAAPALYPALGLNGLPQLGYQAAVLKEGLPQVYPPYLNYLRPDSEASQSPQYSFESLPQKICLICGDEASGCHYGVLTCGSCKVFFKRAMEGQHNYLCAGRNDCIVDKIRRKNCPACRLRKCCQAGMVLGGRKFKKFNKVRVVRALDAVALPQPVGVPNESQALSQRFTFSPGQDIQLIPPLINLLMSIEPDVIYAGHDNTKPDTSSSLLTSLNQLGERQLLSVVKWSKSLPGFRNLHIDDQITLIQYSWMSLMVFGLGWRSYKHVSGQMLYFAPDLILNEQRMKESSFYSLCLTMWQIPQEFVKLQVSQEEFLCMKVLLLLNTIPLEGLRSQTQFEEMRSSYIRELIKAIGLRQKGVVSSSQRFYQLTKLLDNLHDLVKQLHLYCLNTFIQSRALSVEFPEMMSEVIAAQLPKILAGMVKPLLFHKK


Experiments:
[1] = target: T1, full length androgen receptor; assay: not described
progesterone receptor = target: T2, progesterone receptor; assay: not described

Row | Binder | binding result [1] | binding result (progesterone receptor)
1 | SRCdp200: Amino acids 1050-1240 of SRC-1 (Expressed in cells from a transfected plasmid; also called SRC derived peptide; 200 amino acid fragment) peptide: MAPNQLRLQLQQRLQGQQQLIHQNRQAILNQFAATAPVGINMRSGMQQQITPQPPLNAQMLAQRQRELYSQQHRQRQLIQQQRAMLMRQQSFGNNLPPSSGLPVQMGNPRLPQGAPQQFPYPPNYGTNPGTPPASTSPFSQLAANPEASLANRNSMVSRGMTGNIGGQFGTGINPQMQQNVFQYPGAGMVPQ | binds | no binding
2 | SRCdp100: Amino acids 1050-1150 of SRC-1 (Expressed in cells from a transfected plasmid; also called SRCdp(P100); SRC derived peptide) peptide: MAPNQLRLQLQQRLQGQQQLIHQNRQAILNQFAATAPVGINMRSGMQQQITPQPPLNAQMLAQRQRELYSQQHRQRQLIQQQRAMLMRQQSFGNNLPPSSGL | binds | no binding
